Measurements published in patent US20230372536A1, “NANOMATERIAL AND METHODS OF USE THEREOF” (UNIVERSITY OF CONNECTICUT, priority 2020, published 2023).

Experiments:
hMSCs = test: Cell proliferation (CCK-8); format: cell-based, human; settings: for cell proliferation: 3 or 5 days of culture
Protocol: Cell proliferation. Five groups of samples were added to an untreated 96-well plate for the cell proliferation experiment. For the JBNT group, 3.75 μL of 1 mg mL^−1 JBNTs was added to 596.25 μL distilled water to obtain a 600 μL JBNT solution. The concentration of the solution was 6.25 μg mL^−1. For the TGF-β1 group, 7.5 μL of 10 μg mL^−1 TGF-β1 was dispersed in 592.5 μL distilled water to obtain a 0.125 μg mL^−1 test solution. For the matrilin-3 group, 30 μL of 10 μg mL^−1 matrilin-3 was dispersed in 570 μL distilled water to obtain a 0.5 μg mL^−1 test solution. For the J/T/M NM group, 7.5 μL of 10 μg mL^−1 TGF-β1 was mixed with 30 μL of 10 μg mL^−1 matrilin-3 and pipetted several times. Then, 3.75 μL of 1 mg mL^−1 JBNTs was added to the solution and pipetted. The J/T/M NM solution was diluted with 558.75 μL distilled water. The final concentrations of JBNT, TGF-β1, and matrilin-3 samples were 6.25 μg mL^−1, 0.125 μg mL^−1, and 0.5 μg mL^−1, respectively. As a control group, 600 μL distilled water was used. Each sample group was divided into 6 wells, with each well receiving a 100 μL sample. The three plates were placed into a −80° C. freezer for one hour and then freeze-dried with a lyophilized instrument.
hMSCs were seeded onto these plates. Each well received 100 μL cell suspension containing 5,000 cells. Three plates were incubated at 37° C. for 1 day, 3 days, or 5 days (5% CO2). After incubation, 10 μL CCK-8 solution was added to each well with cells. Then, each plate was incubated at 37° C. for another 2 h. The absorption values of the plates were measured with multi-mode microplate readers at 450 nm. A series of a known number of hMSCs were seeded onto a 96-well plate. After incubating for 4 h, the absorption values of the cells were measured with the CCK-8 assay. A standard curve was generated according to the absorption values and the numbers of hMSCs. Cell proliferation was calculated with the absorption standard curve.

[1] = free TGF-β1; cited from earlier work
Zeta-potential test = format: physicochemical; settings: dispersed in H2O
Protocol: Zeta-potential test. Three groups of samples were prepared. For the matrilin-3 group, 160 μL of 10 μg mL^−1 matrilin-3 was dispersed in 640 μL H2O to obtain an 800 μL test solution. For the mixed matrilin-3/TGF-β1 group, 160 μL of 10 μg mL^−1 matrilin-3 was mixed with 40 μL of 10 μg mL^−1 TGF-β1 and pipetted several times. The mixture was then dispersed in 600 μL H2O to obtain an 800 μL test solution. For the J/T/M NM group, 160 μL of 10 μg mL^−1 matrilin-3 was mixed with 40 μL of 10 μg mL^−1 TGF-β1 and pipetted several times. Then, 20 μL of 1 mg mL^−1 JBNTs was added to the solution and pipetted several times. Finally, the J/T/M NM solution was dispersed in 580 μL H2O to obtain an 800 μL test solution. The zeta-potential values of the three groups of samples were tested with a Zetasizer Nano ZS.

| Molecule | cell proliferation (hMSCs) | cell number (proliferation) (hMSCs; one day of culture) | plasma half-life [1] | zeta-potential (Zeta-potential test) |
| --- | --- | --- | --- | --- |
| TGF-β1: Recombinant human TGF-β1 (CHO derived, PeproTech), chondrogenic growth factor | more obvious effects related to the promotion of cell proliferation | significantly higher cell numbers | < 1.67 h | – |
| matrilin-3: Recombinant human matrilin-3 protein (R&D Systems), cartilage-specific ECM protein (protein, UniProt O15232 29-486, looked up) Matrilin-3: DPVARPGFRRLETRGPGGSPGRRPSPAAPDGAPASGTSEPGRARGAGVCKSRPLDLVFIIDSSRSVRPLEFTKVKTFVSRIIDTLDIGPADTRVAVVNYASTVKIEFQLQAYTDKQSLKQAVGRITPLSTGTMSGLAIQTAMDEAFTVEAGAREPSSNIPKVAIIVTDGRPQDQVNEVAARAQASGIELYAVGVDRADMASLKMMASEPLEEHVFYVETYGVIEKLSSRFQETFCALDPCVLGTHQCQHVCISDGEGKHHCECSQGYTLNADKKTCSALDRCALNTHGCEHICVNDRSGSYHCECYEGYTLNEDRKTCSAQDKCALGTHGCQHICVNDRTGSHHCECYEGYTLNADKKTCSVRDKCALGSHGCQHICVSDGAASYHCDCYPGYTLNEDKKTCSATEEARRLVSTEDACGCEATLAFQDKVSSYLQRLNTKLDDILEKLKINEYGQIHR | moderately increase cell proliferation | – | – | approximately −15 mV |
